Values of other authors as cited in patent US20250361227A1, “INHIBITORS OF FLI1 AND ERG” (UNIVERSITY OF VIRGINIA PATENT FOUNDATION, priority 2022, published 2025).

Biological target: DNA
Settings: ITC, ERG construct binding to DNA; ±SE in cell beside; cited from earlier work

B1: 272-378: ERG truncation construct, residues 272-378 (protein, UniProt P11308 272-378, looked up, fragment)
chain: AAQPSPSTVPKTEDQRPQLDPYQILGPTSSRLANPGSGQIQLWQFLLELLSDSSNSSCITWEGTNGEFKMTDPDEVARRWGERKSKPNMNYDKLSRALRYYYDKNIM
In the case of B1, the Kd is given as 33 nM.

B2: 1-462: ERG construct, residues 1-462 (protein, UniProt P11308 1-462, looked up, fragment)
chain: MASTIKEALSVVSEDQSLFECAYGTPHLAKTEMTASSSSDYGQTSKMSPRVPQQDWLSQPPARVTIKMECNPSQVNGSRNSPDECSVAKGGKMVGSPDTVGMNYGSYMEEKHMPPPNMTTNERRVIVPADPTLWSTDHVRQWLEWAVKEYGLPDVNILLFQNIDGKELCKMTKDDFQRLTPSYNADILLSHLHYLRETPLPHLTSDDVDKALQNSPRLMHARNTGGAAFIFPNTSVYPEATQRITTRPDLPYEPPRRSAWTGHGHPTPQSKAAQPSPSTVPKTEDQRPQLDPYQILGPTSSRLANPGSGQIQLWQFLLELLSDSSNSSCITWEGTNGEFKMTDPDEVARRWGERKSKPNMNYDKLSRALRYYYDKNIMTKVHGKRYAYKFDFHGIAQALQPHPPESSLYKYPSDLPYMGSYHAHPQKMNFVAPHPPALPVTSSSFFAAPNPYWNSPTGGIYP
In the case of B2, the Kd is given as 121 nM.

B3: 272-388: the auto-inhibited construct of ERG (272-388) (protein, UniProt P11308 272-388, looked up, fragment)
chain: AAQPSPSTVPKTEDQRPQLDPYQILGPTSSRLANPGSGQIQLWQFLLELLSDSSNSSCITWEGTNGEFKMTDPDEVARRWGERKSKPNMNYDKLSRALRYYYDKNIMTKVHGKRYAY
For B3, the Kd is listed as 176 nM.

B4: 272-412: ERG truncation construct, residues 272-412 (protein, UniProt P11308 272-412, looked up, fragment)
chain: AAQPSPSTVPKTEDQRPQLDPYQILGPTSSRLANPGSGQIQLWQFLLELLSDSSNSSCITWEGTNGEFKMTDPDEVARRWGERKSKPNMNYDKLSRALRYYYDKNIMTKVHGKRYAYKFDFHGIAQALQPHPPESSLYKYP
In the case of B4, the Kd is given as 101 nM.

B5: 289-388: ERG truncation construct, residues 289-388 (protein, UniProt P11308 289-388, looked up, fragment)
chain: QLDPYQILGPTSSRLANPGSGQIQLWQFLLELLSDSSNSSCITWEGTNGEFKMTDPDEVARRWGERKSKPNMNYDKLSRALRYYYDKNIMTKVHGKRYAY
For B5, the Kd is given as 41 nM.

B6: 289-378: the uninhibited DNA binding domain construct of ERG (289-378) (protein, UniProt P11308 289-378, looked up, fragment)
chain: QLDPYQILGPTSSRLANPGSGQIQLWQFLLELLSDSSNSSCITWEGTNGEFKMTDPDEVARRWGERKSKPNMNYDKLSRALRYYYDKNIM
For B6, the Kd is listed as 37 nM.

B7: 210-462: ERG truncation construct, residues 210-462 (protein, UniProt P11308 210-462, looked up, fragment)
chain: KALQNSPRLMHARNTGGAAFIFPNTSVYPEATQRITTRPDLPYEPPRRSAWTGHGHPTPQSKAAQPSPSTVPKTEDQRPQLDPYQILGPTSSRLANPGSGQIQLWQFLLELLSDSSNSSCITWEGTNGEFKMTDPDEVARRWGERKSKPNMNYDKLSRALRYYYDKNIMTKVHGKRYAYKFDFHGIAQALQPHPPESSLYKYPSDLPYMGSYHAHPQKMNFVAPHPPALPVTSSSFFAAPNPYWNSPTGGIYP
In the case of B7, the Kd is listed as 104 nM.
